What was measured:
HUVECs = assay: Migration assay (VEGF-induced chemotaxis, Boyden chamber); assay type: cell-based, human; details: supernatant from plasmid-transfected 293T cells; 10 ng/ml VEGF as chemotactant; FIGS. 2E-2H
Experimental: After trypsinizing, washing, and diluting cells in M199 medium containing 0.5% FBS, 10,000 cells were seeded on the upper chamber wells, together with supernatant collected from 293T transfected with different plasmid (endostatin, endostatin-CD, and CD). M199 medium containing 2% FBS plus 10 ng/ml VEGF was placed in the lower chamber as a chemotactant. The cell-containing compartments were separated from the chemotactant with polycarbonate filter of 8 um pore size. The chamber was incubated at 37° C. for 6-8 hr. After discarding the non-migrated cells and washing the upper wells with PBS, the filters were scraped with a plastic blade, fixed in 4% formaldehyde in PBS, stained with DAPI fluorescent stain and placed on a glass slide. By using a fluorescent high power field, several independent homogenous images were recorded. Five fields were viewed, and […] were counted and averaged. All assays were performed in triplicate.

[1] = tested on: human umbilical endothelial cells (HUVEC); assay: Endothelial tube assay; assay type: cell-based; details: supernatant from plasmid-transfected 293T cells; FIGS. 2A-2D
Experimental: Endothelial tube assay: Matrigel (Collaborative Biomolecules, Bedford, Mass.) was added (50 μl) to each well of a 96-well plate and allowed to polymerize. A suspension of 5,000 human umbilical endothelial cells (HUVEC) in EGM-2 medium without antibiotic was passed into each well coated with matrigel. The cells were treated with supernatants collected from different plasmid (endostatin, endostatin-CD, and CD) transfected 293T cells. All assays were performed in triplicate. Cell were incubated for 12-24 hr at 37° C. and viewed using a microscope. The cells were then photographed. Five fields were viewed, and tubes were counted and averaged.

B1: endostatin: endogenous angiogenesis inhibitor, 18 KD, used as comparator (protein, listed as Homo sapiens)
chain: IVNLKDELLFPSWEALFSGSEGPLKPGARIFSFDGKDVLRHPTRPQKSVWHGSDPNGRRLTESYCETWRTEAPSATGQASSLLGGRLLGQSAASSHHAYIVL
In the case of B1, the HUVEC cell migration (HUVECs) is reported as “inhibitory effect” and the “HUVEC cell tube formation” value [1] is reported as “inhibitory effect”.

From US7906628B2, “Targeting proteins to deliver therapeutic or diagnostic reagents” (The Board of Regents, The University of Texas System, priority 2002, dated 2011)
